Assay results published in the supplement of paper PMC11136658.

Test system: peptide library, one residue held at a place counted from the Y acceptor
Experiment: relative phosphorylation of the sub-library (ratio to the mean residue at this position); higher = residue favoured
Procedure, shortened: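 Purified recombinant kinases were incubated for 90 min in 384-well plates with biotinylated Tyr-centred peptide library mixtures, each fixing one residue at one position from −5 to +5, plus 50 μM ATP with γ-32P-ATP. Peptides were captured on streptavidin membranes, rinsed and quantified by phosphorimaging and ImageQuant. Intensities were normalized per position by the sum of the 18 (or 16, Ser/Thr-free library) randomized residues and multiplied by that number. Values give phosphorylation relative to the mean randomized residue.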

FLT1, construct: aa748-end, human, sequence (P17948 748-1338, looked up): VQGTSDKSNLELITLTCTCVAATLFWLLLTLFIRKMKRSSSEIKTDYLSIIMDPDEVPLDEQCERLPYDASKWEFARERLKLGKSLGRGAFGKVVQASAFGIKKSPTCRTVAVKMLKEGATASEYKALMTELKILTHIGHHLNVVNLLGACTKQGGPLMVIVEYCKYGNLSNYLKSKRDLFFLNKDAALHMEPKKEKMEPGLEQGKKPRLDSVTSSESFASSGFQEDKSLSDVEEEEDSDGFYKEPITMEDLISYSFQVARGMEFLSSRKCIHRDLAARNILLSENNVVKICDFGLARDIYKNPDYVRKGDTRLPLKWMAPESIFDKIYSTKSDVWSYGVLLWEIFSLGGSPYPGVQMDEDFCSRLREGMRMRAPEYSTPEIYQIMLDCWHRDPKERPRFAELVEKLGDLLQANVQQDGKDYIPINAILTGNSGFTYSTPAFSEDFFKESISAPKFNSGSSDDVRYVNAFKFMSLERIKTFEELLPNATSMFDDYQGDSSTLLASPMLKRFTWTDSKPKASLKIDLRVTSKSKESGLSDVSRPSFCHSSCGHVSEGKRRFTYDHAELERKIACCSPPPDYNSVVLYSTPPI

FLT1, construct: aa748-end, human (from UniProt P17948)
relative phosphorylation
Settings | at +1 | at +2 | at +3 | at +4 | at +5 | at -1 | at -2 | at -3 | at -4 | at -5
A fixed | 0.624 | 0.689 | 0.604 | 0.797 | 0.722 | 0.496 | 0.885 | 0.899 | 0.91 | 0.956
D fixed | 0.478 | 1.49 | 0.636 | 1.1 | 1.01 | 3.57 | 1.75 | 1.66 | 1.4 | 1.24
E fixed | 0.487 | 0.899 | 0.582 | 0.817 | 0.933 | 2.46 | 1.57 | 1.66 | 1.38 | 1.1
F fixed | 2.3 | 1.38 | 1.99 | 0.981 | 1.13 | 0.92 | 0.797 | 1.01 | 0.956 | 1.14
G fixed | 0.478 | 0.439 | 0.633 | 0.845 | 0.911 | 0.446 | 1.11 | 1.03 | 1.1 | 1.1
H fixed | 1.38 | 1.17 | 0.7 | 1.3 | 1.17 | 1.18 | 1.07 | 1.22 | 1.12 | 1.24
I fixed | 1.34 | 0.698 | 1.46 | 0.709 | 0.639 | 0.948 | 0.597 | 0.599 | 0.653 | 0.745
K fixed | 0.683 | 1.21 | 0.625 | 1.39 | 1.27 | 0.432 | 1.01 | 0.853 | 1.01 | 1.14
L fixed | 0.873 | 0.86 | 1.63 | 0.787 | 0.844 | 0.639 | 0.633 | 0.729 | 0.693 | 0.727
M fixed | 1 | 0.867 | 1.6 | 0.8 | 0.786 | 0.559 | 0.696 | 0.73 | 0.797 | 0.801
N fixed | 0.533 | 1.19 | 0.755 | 1.06 | 1.11 | 1.16 | 1.16 | 1.17 | 0.929 | 0.953
P fixed | 0.415 | 0.574 | 1.02 | 1.4 | 1.28 | 0.525 | 1.08 | 0.781 | 0.897 | 1.03
Q fixed | 0.957 | 0.926 | 0.684 | 0.88 | 1.09 | 0.81 | 1.14 | 1.05 | 1.02 | 0.936
R fixed | 0.875 | 1.53 | 0.729 | 1.46 | 1.25 | 0.458 | 1.13 | 1.01 | 1.1 | 1.11
S fixed | 0.67 | 0.923 | 0.698 | 0.968 | 0.83 | 0.462 | 1.14 | 1.08 | 0.867 | 0.982
T fixed | 0.987 | 1.11 | 0.666 | 0.83 | 0.839 | 0.705 | 1.04 | 0.906 | 0.887 | 0.891
V fixed | 1.94 | 0.766 | 1.09 | 0.681 | 0.723 | 0.747 | 0.655 | 0.594 | 0.701 | 0.763
W fixed | 1.63 | 1.32 | 1.27 | 0.985 | 1.12 | 0.649 | 0.724 | 1.01 | 1.34 | 1.02
pThr fixed | 0.947 | 2.03 | 0.788 | 1.08 | 0.963 | 2.55 | 1.42 | 2.05 | 1.86 | 1.78
pTyr fixed | 2.58 | 2.77 | 0.88 | 0.609 | 0.679 | 2.54 | 2.3 | 3.12 | 2.64 | 1.66
